# Columns and labels:
# [1] = target: Jak2 (UniProt O60674); assay: phosphorylation enrichment, bacterial display (enrichment ratio); higher = better substrate or ligand; peptides without Tyr show the background
# [2] = test system: AncSZ; assay: as above
# [3] = target: Fes (UniProt P07332); assay: as above
# [4] = target: FGFR1 (UniProt P11362); assay: as above
# [5] = target: FGFR3 (UniProt P22607); assay: as above
# [6] = test system: c-Src; assay: as above
# [7] = target: Fyn (UniProt P06241); assay: as above
# [8] = target: EPHB2 (UniProt P29323); assay: as above
# Sequence of EPHB2 (P29323 whole entry, looked up): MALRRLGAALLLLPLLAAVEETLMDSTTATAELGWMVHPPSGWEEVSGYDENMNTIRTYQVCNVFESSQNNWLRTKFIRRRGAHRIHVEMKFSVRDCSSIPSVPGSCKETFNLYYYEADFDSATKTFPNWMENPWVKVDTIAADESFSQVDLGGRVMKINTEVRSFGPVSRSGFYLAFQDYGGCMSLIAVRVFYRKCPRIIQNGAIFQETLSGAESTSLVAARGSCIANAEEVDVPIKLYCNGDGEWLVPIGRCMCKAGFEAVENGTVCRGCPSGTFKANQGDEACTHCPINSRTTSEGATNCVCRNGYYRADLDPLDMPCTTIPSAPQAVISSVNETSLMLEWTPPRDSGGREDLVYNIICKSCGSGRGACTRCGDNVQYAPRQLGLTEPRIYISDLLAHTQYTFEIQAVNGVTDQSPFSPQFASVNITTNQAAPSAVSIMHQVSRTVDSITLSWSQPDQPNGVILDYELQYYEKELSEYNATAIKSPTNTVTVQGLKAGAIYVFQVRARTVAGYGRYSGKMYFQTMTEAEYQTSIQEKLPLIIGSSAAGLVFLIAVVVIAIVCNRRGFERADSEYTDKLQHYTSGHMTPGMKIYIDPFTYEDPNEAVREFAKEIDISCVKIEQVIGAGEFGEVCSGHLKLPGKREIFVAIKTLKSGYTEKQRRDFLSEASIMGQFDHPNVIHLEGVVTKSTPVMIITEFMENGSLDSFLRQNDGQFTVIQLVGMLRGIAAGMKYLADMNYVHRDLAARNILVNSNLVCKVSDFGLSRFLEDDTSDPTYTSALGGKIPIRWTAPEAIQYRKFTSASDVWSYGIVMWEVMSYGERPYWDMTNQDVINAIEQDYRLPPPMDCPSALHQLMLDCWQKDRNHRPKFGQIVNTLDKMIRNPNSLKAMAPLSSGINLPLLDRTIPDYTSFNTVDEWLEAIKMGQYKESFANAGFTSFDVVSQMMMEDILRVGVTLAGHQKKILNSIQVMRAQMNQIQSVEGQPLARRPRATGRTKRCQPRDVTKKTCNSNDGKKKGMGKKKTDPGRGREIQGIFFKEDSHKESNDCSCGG
# [9] = test system: Fer (mouse); assay: as above
# [10] = target: EPHB1 (UniProt P54762); assay: as above
# [11] = target: Hck (UniProt P08631); assay: as above
# Sequence of Hck (P08631 whole entry, looked up): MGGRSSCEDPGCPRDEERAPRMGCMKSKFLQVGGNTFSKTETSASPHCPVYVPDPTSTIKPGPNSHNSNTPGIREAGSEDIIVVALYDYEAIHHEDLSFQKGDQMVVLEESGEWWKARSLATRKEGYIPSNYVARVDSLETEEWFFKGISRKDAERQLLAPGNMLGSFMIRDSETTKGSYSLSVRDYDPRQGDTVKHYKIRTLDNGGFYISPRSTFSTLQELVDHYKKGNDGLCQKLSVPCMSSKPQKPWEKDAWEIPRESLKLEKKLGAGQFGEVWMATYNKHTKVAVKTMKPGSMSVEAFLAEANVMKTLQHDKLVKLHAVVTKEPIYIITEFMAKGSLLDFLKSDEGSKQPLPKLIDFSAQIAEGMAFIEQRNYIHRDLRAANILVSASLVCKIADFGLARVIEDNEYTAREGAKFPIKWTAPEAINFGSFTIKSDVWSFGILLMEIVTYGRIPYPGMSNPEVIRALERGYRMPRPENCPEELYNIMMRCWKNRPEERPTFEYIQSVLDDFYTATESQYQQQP
# [12] = target: MERTK (UniProt Q12866); assay: as above
# [13] = test system: c-Abl (mouse); assay: as above
# [14] = target: SHP2-C SH2; assay: SH2 binding enrichment of the phosphorylated peptide, bacterial display (enrichment ratio); higher = better substrate or ligand; peptides without Tyr show the background
# [15] = target: c-Src SH2; assay: as above
# [16] = target: Grb2 SH2 (UniProt P62993); assay: as above
# Sequence of Grb2 SH2 (P62993 whole entry, looked up, the tested form may be a part): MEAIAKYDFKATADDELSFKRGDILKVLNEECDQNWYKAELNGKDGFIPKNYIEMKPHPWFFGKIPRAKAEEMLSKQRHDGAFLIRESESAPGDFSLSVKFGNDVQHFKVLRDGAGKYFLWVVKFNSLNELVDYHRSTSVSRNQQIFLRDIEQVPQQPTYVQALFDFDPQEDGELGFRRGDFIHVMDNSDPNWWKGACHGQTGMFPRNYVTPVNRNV
# 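For SH2 binding enrichment of the phosphorylated peptide, bacterial display in this document: peptide library displayed on the E. coli surface as eCPX fusions, selected cells deep-sequenced, score is each peptide's frequency after selection divided by its frequency in the input.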
# 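For phosphorylation enrichment, bacterial display in this document: 11-residue human phosphosite peptides and single-mutation variants displayed on the E. coli surface, counted by deep sequencing, each peptide's frequency after selection divided by its frequency in the unselected input library; frequency after pTyr selection over input frequency; kinase dosed for 20-30% of maximal phosphorylation in three min.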
# Sequence of Fes (P07332 whole entry, looked up): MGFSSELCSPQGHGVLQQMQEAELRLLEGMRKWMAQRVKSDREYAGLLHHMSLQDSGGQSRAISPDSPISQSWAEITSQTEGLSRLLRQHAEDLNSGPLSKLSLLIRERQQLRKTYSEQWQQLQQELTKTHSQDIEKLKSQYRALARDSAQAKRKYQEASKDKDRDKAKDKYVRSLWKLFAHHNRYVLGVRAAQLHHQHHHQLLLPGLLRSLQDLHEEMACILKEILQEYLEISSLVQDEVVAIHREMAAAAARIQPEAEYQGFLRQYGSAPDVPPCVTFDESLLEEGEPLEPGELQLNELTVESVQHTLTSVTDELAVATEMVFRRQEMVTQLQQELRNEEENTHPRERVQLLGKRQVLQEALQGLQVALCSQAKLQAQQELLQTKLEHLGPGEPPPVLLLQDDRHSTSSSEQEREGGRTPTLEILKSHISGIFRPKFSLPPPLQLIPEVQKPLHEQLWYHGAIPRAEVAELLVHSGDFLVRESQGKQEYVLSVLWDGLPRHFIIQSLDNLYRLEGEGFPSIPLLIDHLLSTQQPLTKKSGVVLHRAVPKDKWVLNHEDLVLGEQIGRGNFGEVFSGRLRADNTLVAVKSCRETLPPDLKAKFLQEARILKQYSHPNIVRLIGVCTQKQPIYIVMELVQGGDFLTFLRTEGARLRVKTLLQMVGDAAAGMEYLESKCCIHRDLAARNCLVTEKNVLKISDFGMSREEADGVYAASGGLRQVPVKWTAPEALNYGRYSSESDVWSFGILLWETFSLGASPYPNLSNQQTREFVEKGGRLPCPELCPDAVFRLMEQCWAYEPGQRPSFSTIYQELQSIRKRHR
# Sequence of FGFR1 (P11362 whole entry, looked up): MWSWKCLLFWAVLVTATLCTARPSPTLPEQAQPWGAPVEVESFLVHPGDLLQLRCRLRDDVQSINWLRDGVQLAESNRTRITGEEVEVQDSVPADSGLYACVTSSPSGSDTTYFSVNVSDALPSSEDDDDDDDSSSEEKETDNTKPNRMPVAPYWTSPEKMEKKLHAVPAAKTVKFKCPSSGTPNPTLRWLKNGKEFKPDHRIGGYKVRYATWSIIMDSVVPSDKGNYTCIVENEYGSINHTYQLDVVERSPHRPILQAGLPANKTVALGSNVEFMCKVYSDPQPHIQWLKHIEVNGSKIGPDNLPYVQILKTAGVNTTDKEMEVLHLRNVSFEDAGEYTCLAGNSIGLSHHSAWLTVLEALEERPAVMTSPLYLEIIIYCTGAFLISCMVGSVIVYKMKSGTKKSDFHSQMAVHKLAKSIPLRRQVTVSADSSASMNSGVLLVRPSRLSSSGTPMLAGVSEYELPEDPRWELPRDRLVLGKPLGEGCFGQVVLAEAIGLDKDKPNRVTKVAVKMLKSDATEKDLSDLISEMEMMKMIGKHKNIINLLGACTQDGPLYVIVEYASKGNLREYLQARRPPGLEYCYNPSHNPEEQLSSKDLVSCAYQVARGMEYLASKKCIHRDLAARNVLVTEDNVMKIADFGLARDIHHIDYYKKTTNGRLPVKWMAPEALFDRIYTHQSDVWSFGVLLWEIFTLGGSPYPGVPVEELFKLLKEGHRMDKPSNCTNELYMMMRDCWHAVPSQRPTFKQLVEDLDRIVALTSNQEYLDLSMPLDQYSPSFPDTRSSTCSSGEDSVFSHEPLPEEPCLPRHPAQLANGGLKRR
# Sequence of Jak2 (O60674 whole entry, looked up): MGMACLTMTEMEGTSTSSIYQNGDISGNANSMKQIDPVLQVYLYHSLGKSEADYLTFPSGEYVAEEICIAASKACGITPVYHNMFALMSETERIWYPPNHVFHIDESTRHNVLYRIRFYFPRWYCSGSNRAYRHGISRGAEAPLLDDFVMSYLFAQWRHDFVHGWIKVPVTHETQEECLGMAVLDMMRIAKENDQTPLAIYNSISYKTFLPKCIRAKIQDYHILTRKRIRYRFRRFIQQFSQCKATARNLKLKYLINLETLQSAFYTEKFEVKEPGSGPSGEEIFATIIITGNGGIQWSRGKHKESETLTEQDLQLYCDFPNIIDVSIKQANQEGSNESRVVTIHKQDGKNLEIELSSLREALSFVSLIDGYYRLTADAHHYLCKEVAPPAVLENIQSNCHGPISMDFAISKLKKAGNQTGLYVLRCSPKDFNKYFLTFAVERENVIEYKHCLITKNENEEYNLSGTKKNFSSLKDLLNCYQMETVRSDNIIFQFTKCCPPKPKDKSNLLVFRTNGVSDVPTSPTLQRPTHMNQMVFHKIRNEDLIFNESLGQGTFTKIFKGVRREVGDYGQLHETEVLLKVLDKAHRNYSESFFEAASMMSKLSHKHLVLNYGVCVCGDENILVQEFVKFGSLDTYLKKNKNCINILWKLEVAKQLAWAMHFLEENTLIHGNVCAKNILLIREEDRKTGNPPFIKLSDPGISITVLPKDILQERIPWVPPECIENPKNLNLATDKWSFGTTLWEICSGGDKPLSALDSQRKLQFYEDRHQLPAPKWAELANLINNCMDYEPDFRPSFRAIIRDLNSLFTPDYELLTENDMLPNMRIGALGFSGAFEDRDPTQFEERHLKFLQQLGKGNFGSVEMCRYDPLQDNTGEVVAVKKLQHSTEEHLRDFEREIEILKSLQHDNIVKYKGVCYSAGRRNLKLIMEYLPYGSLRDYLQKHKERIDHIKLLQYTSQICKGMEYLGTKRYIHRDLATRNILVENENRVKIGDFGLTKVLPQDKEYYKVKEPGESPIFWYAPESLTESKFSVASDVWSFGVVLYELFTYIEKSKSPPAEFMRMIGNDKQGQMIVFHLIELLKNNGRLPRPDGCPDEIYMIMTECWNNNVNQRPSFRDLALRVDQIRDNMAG
Sequence,phosphorylation enrichment [1],phosphorylation enrichment [2],phosphorylation enrichment [3],phosphorylation enrichment [4],phosphorylation enrichment [5],phosphorylation enrichment [6],phosphorylation enrichment [7],phosphorylation enrichment [8],phosphorylation enrichment [9],phosphorylation enrichment [10],phosphorylation enrichment [11],phosphorylation enrichment [12],phosphorylation enrichment [13],SH2 binding enrichment [14],SH2 binding enrichment [15],SH2 binding enrichment [16]
ADRNHYRRYPR [YBX1_Y145],0.585,0.613,0.644,0.527,0.465,0.515,0.544,0.425,0.46,0.424,0.55,0.48,0.717,0.299,0.403,0.748
VMAVAYRLAEQ [HK1_Y461_T457M],1.04,0.972,1.06,0.463,0.676,0.463,0.431,0.496,0.491,0.619,0.445,0.46,0.708,1.03,0.685,1.26
IVTLKYPIEHG [ACTB_Y69_L65V],0.74,0.698,0.76,0.523,0.702,0.422,0.483,0.412,0.489,0.434,0.466,0.481,0.871,0.807,0.45,0.77
QLATEYVFSDF [PANX1_Y10],1.57,0.996,1.85,0.716,1.21,0.837,0.762,0.62,0.424,0.615,0.703,0.617,0.907,0.679,0.511,0.895
ISIFHYAKGQP [MPZ_Y82],0.855,1.04,1.03,0.456,0.68,0.35,0.463,0.481,0.434,0.69,0.466,0.379,0.644,0.739,0.7,0.874
RNNTEYVRDIG [MUSK_Y577_I575T],0.364,0.717,0.582,0.418,0.427,0.328,0.496,0.41,0.302,0.422,0.428,0.33,0.479,0.645,0.745,0.834
EVESPYEVRDF [GIGYF2_Y1168_H1171R_YF],1.63,1.57,1.71,0.655,0.942,6.73,7.49,0.951,9.13,1.01,2.04,0.809,1.09,0.616,0.45,0.888
YPKVRYHWLVL [APTX_Y214_A212V],1.06,1,1.35,0.681,1.03,0.474,0.531,0.758,0.506,0.652,0.547,0.448,1.15,1.17,0.756,1.05
MGRVNYGAYIN [GLB1_Y485],0.54,0.701,0.617,0.383,0.499,0.393,0.463,0.486,0.34,0.504,0.395,0.315,0.587,1.19,1.22,4.77
ISITPYPAILH [IFT80_Y588],1.2,1.2,1.24,0.433,0.676,0.414,0.409,0.484,0.37,0.578,0.465,0.36,0.865,0.547,0.385,0.616
YRIDHYLGKEM [G6PD_Y202],0.865,0.716,0.909,0.57,0.654,0.485,0.757,0.627,0.445,0.467,0.57,0.508,0.706,0.665,0.589,0.678
FIGRIYLFLTK [GARS1_Y414_YF],1.38,1.61,1.45,0.542,0.813,0.632,0.567,0.632,0.707,0.83,0.564,0.586,1.31,1.22,0.879,1.57
FGGLRCGFGVL [KRTAP20-2_Y13_Y13C_YF],0.901,0.91,1.14,0.45,0.686,0.37,0.349,0.537,0.46,0.49,0.403,0.34,0.673,0.609,0.469,0.69
SGTFQYIIAKF [FOXL2_Y83_I80T_YF],0.953,1.09,1.27,0.494,0.793,0.366,0.532,0.491,0.473,0.448,0.418,0.393,0.878,0.572,0.58,0.699
FSTDFYRVGGH [NTRK2_Y707_YF],0.704,0.722,0.813,0.459,0.569,0.478,0.493,0.405,0.471,0.637,0.396,0.429,0.756,0.702,0.56,0.849
TPSGNYVACGG [GNB1_Y111_A106T],0.602,0.614,0.8,0.555,0.436,0.783,0.447,0.704,0.415,0.771,0.488,0.516,0.677,1.25,1.73,1.14
RNLLIYTEFGK [HGD_Y166_G161R],0.997,1.4,1.22,0.583,0.945,4.93,8.15,1.12,0.827,2.86,5.2,5.3,2.48,0.194,0.457,0.94

Sequence,phosphorylation enrichment [1],phosphorylation enrichment [2],phosphorylation enrichment [3],phosphorylation enrichment [4],phosphorylation enrichment [5],phosphorylation enrichment [6],phosphorylation enrichment [7],phosphorylation enrichment [8],phosphorylation enrichment [9],phosphorylation enrichment [10],phosphorylation enrichment [11],phosphorylation enrichment [12],phosphorylation enrichment [13],SH2 binding enrichment [14],SH2 binding enrichment [15],SH2 binding enrichment [16]
RSPLRYISILT [OR51B6_Y130_T131I],0.475,0.724,0.8,0.676,0.763,0.322,0.409,0.473,0.606,0.446,0.515,0.376,0.419,1.33,1.07,1.01
VHLYAYDWISI [BEST1_Y227_G222V],1.33,2.32,3.05,5.73,4.71,1.44,1.18,5.88,13,7.2,1.83,8.36,0.865,1.42,1.18,1.48
TKVVHYRKWIK [KLK2_Y249],0.415,0.632,0.614,0.375,0.432,0.595,0.382,0.318,0.373,0.483,0.443,0.379,0.462,0.912,0.558,1.12
QDRTFYESVRT [SPEN_Y633_YF],0.564,1.1,1.04,0.529,0.686,1.29,1.21,0.579,8.88,0.74,2.43,1.04,0.717,2.39,1.97,0.816
AGIENYTSRFG [NKD2_Y256],0.465,0.569,0.719,0.434,0.529,0.426,0.421,0.386,0.383,0.817,0.329,0.418,0.585,0.625,0.485,0.767
FEPDAYDDLDQ [ELP5_Y302_YF],1.27,1.29,1.3,0.573,0.704,0.41,0.574,0.684,0.6,0.624,0.571,0.57,0.731,0.807,0.623,1.03
EWLRRYLKNGK [HLA-C_Y195_E197K],0.679,0.68,0.636,0.507,0.516,0.504,0.439,0.578,0.471,0.373,0.522,0.581,0.546,0.409,0.436,0.656
RGRSTYYWPSP [GAGE12J_Y9_R13S],0.656,2.12,0.885,1.49,1.01,1.23,0.938,0.871,0.699,0.994,0.949,6.32,0.647,0.472,0.373,0.647
RSRSPYSPVFR [CDK13_Y399_L403F],0.737,0.812,0.77,0.459,0.462,0.576,0.6,0.452,0.403,0.546,0.736,0.655,0.58,0.405,0.463,0.706
IDFARYWHGDD [MMP11_Y162],0.639,0.81,0.857,0.477,0.567,0.387,0.405,0.504,0.799,0.676,0.463,0.536,0.592,0.878,0.674,0.843
AHAGEYGVEAL [HBA1_Y25_A27V],0.793,0.83,0.9,0.499,0.678,0.402,0.525,0.631,0.448,0.492,0.547,0.422,0.595,0.79,0.493,0.872
TEQDPYNSIVR [MMUT_Y364_N366S],0.889,1.03,1.01,0.697,0.665,0.593,0.494,0.616,0.488,0.496,0.551,0.4,0.661,0.711,1.48,0.952
ENELTYYCYKK [CD59_Y86_C89Y],2.25,1.92,1.69,1.68,1.53,5.18,4.74,0.752,0.685,0.794,4.79,1.36,6.18,0.65,0.45,0.793
FSNPAYYVLEG [INPPL1_Y986_N982S],3.92,0.834,0.848,10.1,7.89,1.43,1.32,0.509,0.426,0.614,0.778,6.51,0.591,0.99,4.44,0.918
HYEFKYVINAI [MAOA_Y268_C266F],1.55,1.75,1.72,0.471,0.964,0.536,0.481,0.782,0.74,1.05,0.489,0.572,1.28,0.69,0.582,0.868
YAREGYSALPQ [SARS2_Y52],0.904,0.678,0.789,0.522,0.52,0.373,0.396,0.459,0.439,0.499,0.58,0.442,0.541,0.577,0.552,0.901

# Reference: the supplement of paper PMC10065799, “High-throughput profiling of sequence recognition by tyrosine kinases and SH2 domains using bacterial peptide display” (eLife, 2023)
